Assay results taken from patent publication US20240279290A1 (Molecular Partners, published 2024).

Target: T1, cynomolgus serum albumin (cynomolgus)
T1 construct: also called CSA
Experiment: SPR (ProteOn XPR36), Protein #5 captured on hFAP-coated GLC chip, CSA as analyte, 1:1 Langmuir fit
Procedure: ProteOn setup for Protein #5 binding to serum albumin of different species. First, human FAP (hFAP) was coated on a GLC chip (BioRad) to a level of 700 RU before 50 nM Protein #5 was immobilized as analyle for 120 s (dissociation of 0 s) at constant flow of 100 μl/min to a level of 120 RU. The binding of the serum albumin to Protein #5 was measured by injecting human serum albumin (HSA), cynomolgus serum albumin (CSA) and mouse serum albumin (MSA) in a serial dilution of 100, 33, 11 and 3.7 nM with an association of 120 s and a dissociation of 600 s at a constant flow of 100 μl/min. HSA, CSA and MSA binding was measured serially and the hFAP/Protein #5 complex was regenerated each time with 10 mM glycine pH2 for 18 s at a flow of 100 μl/min. Thus, Protein #5 had to be re-immobilized on hFAP after each regeneration step. […] The kinetic was calculated on the first 300 s of dissociation.

T1 sequence (A2V9Z4 25-608): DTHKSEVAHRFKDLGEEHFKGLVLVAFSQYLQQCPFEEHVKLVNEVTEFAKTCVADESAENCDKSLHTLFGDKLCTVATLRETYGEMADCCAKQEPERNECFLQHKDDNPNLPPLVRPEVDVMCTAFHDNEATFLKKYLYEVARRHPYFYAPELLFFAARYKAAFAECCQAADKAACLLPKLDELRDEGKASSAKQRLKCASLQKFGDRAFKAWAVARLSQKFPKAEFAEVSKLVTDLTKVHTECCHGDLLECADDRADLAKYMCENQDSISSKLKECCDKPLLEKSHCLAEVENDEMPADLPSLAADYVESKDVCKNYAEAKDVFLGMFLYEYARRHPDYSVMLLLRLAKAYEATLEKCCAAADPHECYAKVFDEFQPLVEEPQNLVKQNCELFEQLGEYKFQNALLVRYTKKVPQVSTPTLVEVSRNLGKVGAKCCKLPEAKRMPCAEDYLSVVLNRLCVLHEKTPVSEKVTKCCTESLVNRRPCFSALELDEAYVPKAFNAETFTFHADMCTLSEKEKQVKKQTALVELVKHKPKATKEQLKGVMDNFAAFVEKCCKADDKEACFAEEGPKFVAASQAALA

- Kd: 409 nM
- koff: 0.217 s⁻¹
- kon: 532000 M⁻¹ s⁻¹
B1: DARPin Protein #5 (designed binder)
chain: GSDLGKKLLEAARAGQDDEVRELLKAGADVNAKDYFSHTPLHLAARNGHLKIVEVLLKAGADVNAKDFAGKTPLHLAAADGHLEIVEVLLKAGADVNAQDIFGKTPADIAADAGHEDIAEVLQKAAGSPTPTPTTPTPTPTTPTPTPTGSDLGKKLLEAARAGQDDEVRILLAAGADVNAKDVLGWTPLHLAAFEGHLEIVEVLLKAGADVNAKDKKGWTPLQLAARTGHLEIVEVLLKAGADVNAKDHIGATPLHLAAWQGHPEIVEVLLKAGADVNAQDKSGKTPADLAADAGHEDIAEVLQKAAGSPTPTPTTPTPTPTTPTPTPTGSDLGKKLLQAARAGQLDEVRELLKAGADVNAKDTWGFTPLHIAAESGHLEIVEVLLKAGADVNAKDVQGRTPLHIAAHSGHLEIVEVLLKAGADVNAKDFRGWTPLHLAAWSGHLEIVEILLKAGADVNAQDKSGKTPADLAARAGHQDIAEVLQKAAGSPTPTPTTPTPTPTTPTPTPTGSDLGKKLLQAARAGQLDEVRELLKAGADVNAKDTWGFTPLHIAAESGHLEIVEVLLKAGADVNAKDVQGRTPLHIAAHSGHLEIVEVLLKAGADVNAKDFRGWTPLHLAAWSGHLEIVEILLKAGADVNAQDKSGKTPADLAARAGHQDIAEVLQKAA
notes: No tag is stated for this protein; also called SMA136; Molecule No. 1
